Tested on: MS2 coat protein
Test: apparent KD of MS2 coat protein; designed switch direction (-1 OFF switch, 1 ON switch): 1; higher = weaker reporter binding
In short: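 RNA switches sharing common flanks were transcribed by stalled E. coli RNA polymerase on Illumina chips. A doubling series of SNAP-549-labelled MS2 coat protein, from 0.7 or 1.5 nM to 3 µM, was applied in Tris-HCl pH 7.5 buffer with KCl, MgCl2, BSA, DTT, tRNA and Tween-20. Each step lasted 0.8–1.5 h at the bottom of the series and 10–20 min at the top. Normalised cluster fluorescence was curve-fitted, giving apparent KD as the per-design median over clusters.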

[1] = input ligand: microRNA oligo, concentration not stated
[2] = Eterna round: R95, input ligand: FMN 200 uM
[3] = Eterna round: R95, input ligand: microRNA oligo, concentration not stated
[4] = Eterna round: R95, input ligand: none

Sequence	apparent KD of MS2 coat protein (input ligand: FMN 200 uM) [nM]	apparent KD of MS2 coat protein [1] [nM]	apparent KD of MS2 coat protein (input ligand: none) [nM]	apparent KD of MS2 coat protein [2] [nM]	apparent KD of MS2 coat protein [3] [nM]	apparent KD of MS2 coat protein [4] [nM]
AUUAUUAAUGCAGGAUAUGAUUAACAUGAGGAUCACCCAUGUGGUGUUGUGAGUAAGGAGAGUGAUCAGAAGGGCAUUUUUUCU [JMF's solution 17] (Eterna round: R96, puzzle: Same State NG 2)	558	442	585	–	–	–
AAUUAAGAUUAAGGAUAUCACGUCGUUUAGACGUGAGAAGGUGAUCAUAACAUGAGGAUCACCCAUGUAUUACAUGAAUUAAUU [SSNG1/3-B3] (Eterna round: R96, puzzle: Same State NG 1)	1040	284	1190	–	–	–
AAAUGUAGGAAACAACAGCAAGAGCAUGUACAUGAGGAUCACCCAUGUCAUGUACAAGCUUUUUGCUGGUCUUAUUA [ak 2 mod of one Eli's designs..] (puzzle: Sensor for hsa-mir-208a)	–	–	–	23.7	31	19.6
AGAUCAUGACGAGGAUAUGGUACAUGAGGAUCACCCAUGUAUGUACCACGACGGAAACGUCGAAUCCAGAAGGCGUCAUGAUCA [Mat - Same State NG 2 - JL mod - D24] (Eterna round: R96, puzzle: Same State NG 2)	30.5	109	130	–	–	–
UAGUACAAGCUUUUUGCUUGUCUUAUUUAACAUGAGGAUCACCCAUGUAAGUUGAAAGUUAGAGAGUGCACCUUCAA [JR_SHM208A_Sub052] (Eterna round: R96, puzzle: Sensor for hsa-mir-208a)	17.2	17	21.6	–	–	–
UUCCCAGCGGGAGGAUAUGGUGCCUUAUUGGUGCUAGAAGGUCCAACAUGAGGAUCACCCAUGUGGGAGUGGUCUAAUGACCUC [SS NG10LRO07] (Eterna round: R96, puzzle: Same State NG 1)	–	169	–	–	–	–
GGUCCGGCCUGAGCUGGACCGGAGCAUGUACAUGAGGAUCACCCAUGUCAUGUACAGGCUUCUUGCUCGUCUUGUUG [JL-shm-2.16 JL Mod] (puzzle: Sensor for hsa-mir-208a)	–	–	–	314	15	421
CGGGUCGUGCUAGGAUAUCUAGGAUAUGGACGAGGAUUACCCGAGCAGCAUUAGCGCACCAGAGGAGAGAAGGAGCGUGAUGCG [pwkr ssNG2 2F5 2FMN.15] (Eterna round: R96, puzzle: Same State NG 2)	287	42.2	109	–	–	–
GGUCCAUCAUGAGGAUAUGGCACCUUAUUGGUGCCAGAAGGCAUGUAAAUUAUAAUAAACAUGAGGAUCACCCAUGUAUGGACC [Eli NG1ss - 96] (Eterna round: R96, puzzle: Same State NG 1)	439	55.5	137	–	–	–
UUGCUCGUGUGAGGAUAUGCCGCCGUUUCGGCUGCAGAAGGUACUUUAAUACAUGAGGAUCACCCAUGUCUCUGUUGUUUCGUG [salish99_SSNG1_r04_933] (Eterna round: R96, puzzle: Same State NG 1)	–	23.1	–	–	–	–
UUGCUCGUGUGAGGAUAUGCCGCCGUUUCGGCUGCAGAAGGUACUCUAAUACAUGAGGAUCACCCAUGUCUCUGUUGUUUCGUG [salish99_SSNG1_r04_935] (Eterna round: R96, puzzle: Same State NG 1)	86.7	52.4	80.9	–	–	–
AGAUCAUGACGAGGAUAUGCCACAUGAGGAUCACCCAUGUAUGUGGUAGGACGCGUACGUCCAAAGCAGAAGGCGUCGUGGUCA [JL SSNG2 1.01] (Eterna round: R96, puzzle: Same State NG 2)	17.2	28.5	55.5	–	–	–

Source: the supplement of paper PMC9170038
